# Patent US20210309751A1
# B1: AdMo CD123-La5B9 (CD123-specific adapter module with an scFv recognizing the La 5B9 epitope) (bispecific antibody, part only; not given: linkers, domain order, tags, V domains shown, not shown: another chain or arm of the molecule; small tags and cut ends)
# VH 1: QVQLVQSGAEVKKPGASVKVSCKASGYTFTHYYIYWVRQAPGQGLEWMGGVNPSNGGTHFNEKFKSRVTMTRDTSISTAYMELSRLRSDDTAVYYCARSEYDYGLGFAYWGQGTLVTVSS
# VL 1: DIVMTQSPDSLAVSLGERATINCKSSQSLLNSRTPKNYLAWYQQKPGQPPKLLIYWASTRKSGVPDRFSGSGSGTDFTLTISSLQAEDVAVYYCKQSYNLLTFGGGTKVEIK
# VH 2: EVQLQQSGPELVKPGASVKMSCKASGYTFTDYYMKWVKQSHGKSLEWIGDIIPSNGATFYNQKFKGKATLTVDRSSSTAYMHLNSLTSEDSAVYYCTRSHLLRASWFAYWGQGTLVTVS
# VL 2: DFVMTQSPSSLTVTAGEKVTMSCKSSQSLLNSGNQKNYLTWYLQKPGQPPKLLIYWASTRESGVPDRFTGSGSGTDFTLTISSVQAEDLAVYYCQNDYSYPYTFGGGTKLEIK
# What was measured:
# [1] = target: RevCAR harboring the La 5B9 epitope tag, on RevCAR expressing cells (human); test: binding assay on RevCAR expressing target cells
# [2] = target: CD123 (interleukin-3 receptor a chain) on CD123-expressing OCI-AML3 blasts (human) (UniProt P26951); test: binding assay on CD123-expressing OCI-AML3 cells
# Sequence of UniProt P26951 (P26951 19-378): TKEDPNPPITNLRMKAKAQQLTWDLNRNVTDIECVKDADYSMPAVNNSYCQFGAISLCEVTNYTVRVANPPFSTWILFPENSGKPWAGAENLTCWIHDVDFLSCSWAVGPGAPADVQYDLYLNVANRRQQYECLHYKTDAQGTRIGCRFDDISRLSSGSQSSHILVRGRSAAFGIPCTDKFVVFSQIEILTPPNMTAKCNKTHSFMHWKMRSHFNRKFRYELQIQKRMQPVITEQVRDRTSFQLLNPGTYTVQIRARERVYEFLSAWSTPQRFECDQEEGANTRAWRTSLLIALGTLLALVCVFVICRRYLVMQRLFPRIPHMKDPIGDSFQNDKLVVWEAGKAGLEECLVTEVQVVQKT
binder,measurement,setting,value
B1,Kd,[1],0.012 nM
same,Kd,[2],0.015 nM
